Test [1] addresses T1, extracellular region of human V158 FcγRIIIa with C-terminal 6xHis-tag and GST-tag (human, UniProt P08637 17-208). Put plainly: SPR, fold vs WT alemtuzumab. (SPR reads the build-up and loss of mass on a sensor chip optically.)
Test [2] addresses T1, extracellular region of human V158 …. Put plainly: SPR, receptor on chip.
Test [3] addresses extracellular region of human F158 FcγRIIIa with C-terminal 6xHis-tag and GST-tag (human, UniProt P08637 17-208). Put plainly: SPR, receptor on chip.
In test [4] the target is T1, extracellular region of human V158 …. In words: AlphaScreen competition.
Test [5] has the same target. In words: AlphaScreen competition. This is another data set of the same source. (In general: Alpha assays give light when donor and acceptor beads are brought close together.)
For test [6] the target is unchanged. Put plainly: AlphaScreen competition, fold vs WT alemtuzumab.
Test [7] has the same target. In words: AlphaScreen competition. This is another data set of the same source.

Where two headings read alike, the source gives them in different places.

B1: E272R alemtuzumab (antibody)
chain 1: not shown
chain 2: not shown
For B1, in test [1], the “Fold WT” value was found to be 1.38 fold.

B2: WT alemtuzumab (antibody)
chain 1: not shown
chain 2: not shown
For orientation: Kd means the concentration at which binding is half-saturated. A lower Kd goes with a tighter complex. On to B2, for which the Kd came out at 68 nM in test [2] and 730 nM in test [3].

B3: V284E alemtuzumab (antibody)
chain 1: not shown
chain 2: not shown
As to B3, in test [1], the “Fold WT” value stood at 1.51 fold.

B4: V264I/I332E alemtuzumab (antibody)
chain 1: not shown
chain 2: not shown
A word on the IC50: it is the midpoint of a concentration-inhibition curve. Read a low IC50 as inhibition by little substance. In test [4], B4 displayed an IC50 of 0.5 nM. Moreover, the Kd came out at 17 nM in test [2] and 52 nM in test [3].

B5: S239D alemtuzumab (antibody)
chain 1: not shown
chain 2: not shown
On to B5, for which, in test [5], the IC50 was 0.8 nM.

B6: T260H alemtuzumab (antibody)
chain 1: not shown
chain 2: not shown
In the case of B6, the “Fold WT” value in test [1] is 1.86 fold; in test [6], 1 fold.

B7: S298A alemtuzumab (antibody)
chain 1: not shown
chain 2: not shown
Regarding B7, the Kd in test [2] was 52 nM; in test [3], 285 nM.

B8: V264I alemtuzumab (antibody)
chain 1: not shown
chain 2: not shown
In the case of B8, in test [2], the Kd is 64 nM.

B9: I332E alemtuzumab (antibody)
chain 1: not shown
chain 2: not shown
Take B9: the Kd in test [2] stood at 31 nM; in test [3], 72 nM.

B10: E283H alemtuzumab (antibody)
chain 1: not shown
chain 2: not shown
As for B10, the “Fold WT” value in test [1] was found to be 2.31 fold.

B11: S304T alemtuzumab (antibody)
chain 1: not shown
chain 2: not shown
For the molecule B11, in test [1], the “Fold WT” value was 12.8 fold.

B12: N297D/A330Y/I332E alemtuzumab (antibody)
chain 1: QVQLQESGPGLVRPSQTLSLTCTVSGFTFTDFYMNWVRQPPGRGLEWIGFIRDKAKGYTTEYNPSVKGRVTMLVDTSKNQFSLRLSSVTAADTAVYYCAREGHTAAPFDYWGQGSLVTVSSASTKGPSVFPLAPSSKSTSGGTAALGCLVKDYFPEPVTVSWNSGALTSGVHTFPAVLQSSGLYSLSSVVTVPSSSLGTQTYICNVNHKPSNTKVDKKVEPKSCDKTHTCPPCPAPELLGGPSVFLFPPKPKDTLMISRTPEVTCVVVDVSHEDPEVKFNWYVDGVEVHNAKTKPREEQYDSTYRVVSVLTVLHQDWLNGKEYKCKVSNKALPYPEEKTISKAKGQPREPQVYTLPPSRDELTKNQVSLTCLVKGFYPSDIAVEWESNGQPENNYKTTPPVLDSDGSFFLYSKLTVDKSRWQQGNVFSCSVMHEALHNHYTQKSLSLSPGK
chain 2: not shown
Regarding B12, the “affinity as a fraction of glycosylated WT alemtuzumab” value in test [7] was 0.4 fold.

B13: S239D/N297D/I332E alemtuzumab (antibody)
chain 1: QVQLQESGPGLVRPSQTLSLTCTVSGFTFTDFYMNWVRQPPGRGLEWIGFIRDKAKGYTTEYNPSVKGRVTMLVDTSKNQFSLRLSSVTAADTAVYYCAREGHTAAPFDYWGQGSLVTVSSASTKGPSVFPLAPSSKSTSGGTAALGCLVKDYFPEPVTVSWNSGALTSGVHTFPAVLQSSGLYSLSSVVTVPSSSLGTQTYICNVNHKPSNTKVDKKVEPKSCDKTHTCPPCPAPELLGGPDVFLFPPKPKDTLMISRTPEVTCVVVDVSHEDPEVKFNWYVDGVEVHNAKTKPREEQYDSTYRVVSVLTVLHQDWLNGKEYKCKVSNKALPAPEEKTISKAKGQPREPQVYTLPPSRDELTKNQVSLTCLVKGFYPSDIAVEWESNGQPENNYKTTPPVLDSDGSFFLYSKLTVDKSRWQQGNVFSCSVMHEALHNHYTQKSLSLSPGK
chain 2: not shown
Take B13: the “affinity as a fraction of glycosylated WT alemtuzumab” value in test [7] stood at 0.8 fold.

B14: S298A/E333A/K334A alemtuzumab (antibody)
chain 1: QVQLQESGPGLVRPSQTLSLTCTVSGFTFTDFYMNWVRQPPGRGLEWIGFIRDKAKGYTTEYNPSVKGRVTMLVDTSKNQFSLRLSSVTAADTAVYYCAREGHTAAPFDYWGQGSLVTVSSASTKGPSVFPLAPSSKSTSGGTAALGCLVKDYFPEPVTVSWNSGALTSGVHTFPAVLQSSGLYSLSSVVTVPSSSLGTQTYICNVNHKPSNTKVDKKVEPKSCDKTHTCPPCPAPELLGGPSVFLFPPKPKDTLMISRTPEVTCVVVDVSHEDPEVKFNWYVDGVEVHNAKTKPREEQYNATYRVVSVLTVLHQDWLNGKEYKCKVSNKALPAPIAATISKAKGQPREPQVYTLPPSRDELTKNQVSLTCLVKGFYPSDIAVEWESNGQPENNYKTTPPVLDSDGSFFLYSKLTVDKSRWQQGNVFSCSVMHEALHNHYTQKSLSLSPGK
chain 2: not shown
For the molecule B14, the dissociation constant (Kd) was 39 nM in test [2] and 156 nM in test [3].

The record behind these values is patent publication US20070286859A1 (published 2007).
